Reference: US20090081226A1

How the values were obtained:
[1] = molecular target: membrane-bound HLA-E (human); assay: cell-based or functional assay
[2] = molecular target: membrane-bound HLA-E (human); assay: flow cytometry on short term cultured melanocytes
[3] = molecular target: membrane-bound HLA-E (human); assay: flow cytometry on a panel of 22 melanoma cell lines
[4] = molecular target: CD94/NKG2A receptor (human) (UniProt Q13241); assay: cell-based or functional assay
UniProt Q13241, sequence (Q13241 other isoform, or with tags, fused parts or gaps, chain 1 of 2): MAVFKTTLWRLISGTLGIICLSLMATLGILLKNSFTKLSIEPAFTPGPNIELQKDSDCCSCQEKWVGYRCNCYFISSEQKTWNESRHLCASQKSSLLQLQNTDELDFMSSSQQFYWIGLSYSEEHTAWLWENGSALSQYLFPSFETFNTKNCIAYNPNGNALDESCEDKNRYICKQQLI
UniProt Q13241, sequence (chain, as listed by the source, chain 2 of 2): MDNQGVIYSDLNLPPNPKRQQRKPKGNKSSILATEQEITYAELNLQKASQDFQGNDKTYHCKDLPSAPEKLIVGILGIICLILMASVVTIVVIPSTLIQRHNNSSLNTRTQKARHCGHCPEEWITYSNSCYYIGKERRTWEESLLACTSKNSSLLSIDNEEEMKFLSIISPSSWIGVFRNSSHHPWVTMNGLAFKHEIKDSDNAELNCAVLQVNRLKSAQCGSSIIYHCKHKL

anti-HLA-E mAb MEM-E/06 (antibody)
NK-mediated cytotoxicity, specific lysis (51Cr release) of IFNγ-activated HAEC (% specific lysis) [1]: 34.9

anti-HLA-E mAb MEM-E/07 (antibody)
ratio fluorescence intensity (RFI) (ratio (MFI test / MFI negative control)) [2]: 3 to 7 | ratio fluorescence intensity (RFI) (ratio (MFI test / MFI negative control)) [3]: 1 to 4

membrane-bound HLA-E (from UniProt P61769 21-119) (peptide-MHC)
NK-mediated cytotoxicity, specific lysis (51Cr release) of ECs (% specific lysis) [4]: 2.6
